Experimental data as given in the supplement of paper PMC11246515.
± gives the standard deviation of the averaged measurements.

Test: total protein half-life in vivo (active degradation + dilution); higher = more stable protein
[1] = E. coli NCM3722 delta-clpP delta-lon delta-hslV, growth: N-lim chemostat, doubling time 6 h
[2] = E. coli NCM3722 delta-clpP, growth: N-lim chemostat, doubling time 6 h
[3] = E. coli NCM3722 delta-hslV, growth: N-lim chemostat, doubling time 6 h
[4] = E. coli NCM3722 delta-lon, growth: N-lim chemostat, doubling time 6 h
[5] = E. coli NCM3722 delta-smpB, growth: N-lim chemostat, doubling time 6 h
[6] = wild type E. coli NCM3722, growth: C-lim chemostat, doubling time 3 h
[7] = wild type E. coli NCM3722, growth: C-lim chemostat, doubling time 6 h
[8] = wild type E. coli NCM3722, growth: C-lim chemostat, doubling time 12 h
[9] = wild type E. coli NCM3722, growth: N-lim chemostat, doubling time 6 h
[10] = wild type E. coli NCM3722, growth: N-lim chemostat, doubling time 12 h
[11] = wild type E. coli NCM3722, growth: P-lim chemostat, doubling time 6 h
[12] = wild type E. coli NCM3722, growth: P-lim chemostat, doubling time 12 h

Sequence	total protein half-life in vivo [1]	total protein half-life in vivo [2]	total protein half-life in vivo [3]	total protein half-life in vivo [4]	total protein half-life in vivo [5]	total protein half-life in vivo [6]	total protein half-life in vivo [7]	total protein half-life in vivo [8]	total protein half-life in vivo [9]	total protein half-life in vivo [10]	total protein half-life in vivo [11]	total protein half-life in vivo [12]
MRVLKFGGTSVANAERFLRVADILESNARQGQVATVLSAPAKITNHLVAMIEKTISGQDALPNISDAERIFAELLTGLAAAQPGFPLAQLKTFVDQEFAQIKHVLHGISLLGQCPDSINAALICRGEKMSIAIMAGVLEARGHNVTVIDPVEKLLAVGHYLESTVDIAESTRRIAASRIPADHMVLMAGFTAGNEKGELVVLGRNGSDYSAAVLAACLRADCCEIWTDVDGVYTCDPRQVPDARLLKSMSYQEAMELSYFGAKVLHPRTITPIAQFQIPCLIKNTGNPQAPGTLIGASRDEDELPVKGISNLNNMAMFSVSGPGMKGMVGMAARVFAAMSRARISVVLITQSSSEYSISFCVPQSDCVRAERAMQEEFYLELKEGLLEPLAVTERLAIISVVGDGMRTLRGISAKFFAALARANINIVAIAQGSSERSISVVVNNDDATTGVRVTHQMLFNTDQVIEVFVIGVGGVGGALLEQLKRQQSWLKNKHIDLRVCGVANSKALLTNVHGLNLENWQEELAQAKEPFNLGRLIRLVKEYHLLNPVIVDCTSSQAVADQYADFLREGFHVVTPNKKANTSSMDYYHQLRYAAEKSRRKFLYDTNVGAGLPVIENLQNLLNAGDELMKFSGILSGSLSYIFGKLDEGMSFSEATTLAREMGYTEPDPRDDLSGMDVARKLLILARETGRELELADIEIEPVLPAEFNAEGDVAAFMANLSQLDDLFAARVAKARDEGKVLRYVGNIDEDGVCRVKIAEVDGNDPLFKVKNGENALAFYSHYYQPLPLVLRGYGAGNDVTAAGVFADLLRTLSWKLGV	5.65 ± 0.16 h	4.31 ± 0.13 h	4.513 ± 0.01 h	4.89 ± 0.11 h	4.13 ± 0.11 h	3.08 ± 0.21 h	5.9 ± 0.22 h	13.5 ± 0.33 h	4.29 ± 0.33 h	7.56 ± 0.76 h	6.53 ± 0.39 h	12.2 ± 0.26 h
MNAVTEGRKVLLEIADLKVHFEIKDGKQWFWQPPKTLKAVDGVTLRLYEGETLGVVGESGCGKSTFARAIIGLVKATDGHVAWLGKELLGMKPDEWRAVRSDIQMIFQDPLASLNPRMTIGEIIAEPLRTYHPKMSRQEVRERVKAMMLKVGLLPNLINRYPHEFSGGQCQRIGIARALILEPKLIICDEPVSALDVSIQAQVVNLLQQLQREMGLSLIFIAHDLAVVKHISDRVLVMYLGHAVELGTYDEVYHNPLHPYTRALMSAVPIPDPDLEKNKTIQLLEGELPSPINPPSGCVFRTRCPIAGPECAKTRPVLEGSFRHSVSCLKVDPL	5.54 ± 0.093 h	5.82 ± 0.9 h	4.61 ± 0.15 h	4.14 ± 0.14 h	6.25 ± 1.4 h	2.65 ± 0.51 h	6.13 ± 1.6 h	10.3 ± 0.15 h	5.03 ± 0.17 h	8.26 ± 0.85 h	5.69 ± 0.078 h	12.15 ± 0.025 h
MVTSCTGHVLDNQRATTRGVFSSGSHLVTLHFQPHPFFSCVTDAVNGARSRFSAFYPKANYGLQGSQPSDVRAHNRAANGACDEYKQLKVLSMGRQKAVIKARREAKRVLRRDSRSHKQREEESVTSLVQMGGVEAIGMARDSRDTSPILARNEAQLHYLKAIESKQLIFATGEAGCGKTWISAAKAAEALIHKDVDRIIVTRPVLQADEDLGFLPGDIAEKFAPYFRPVYDVLVRRLGASFMQYCLRPEIGKVEIAPFAYMRGRTFENAVVILDEAQNVTAAQMKMFLTRLGENVTVIVNGDITQCDLPRGVCSGLSDALERFEEDEMVGIVRFGKEDCVRSALCQRTLHAYS [P0A9K1]	5.82 ± 0.65 h	1.96 ± 0.059 h	0.55 ± 0.47 h	0.666 ± 0.43 h	0.308 ± 0.011 h	0.166 ± 0.058 h	0.347 ± 0.25 h	0.864 h	0.735 ± 0.45 h	0.571 h	0.355 h	1.23 ± 0.8 h
MTDLPDSTRWQLWIVAFGFFMQSLDTTIVNTALPSMAQSLGESPLHMHMVIVSYVLTVAVMLPASGWLADKVGVRNIFFTAIVLFTLGSLFCALSGTLNELLLARALQGVGGAMMVPVGRLTVMKIVPREQYMAAMTFVTLPGQVGPLLGPALGGLLVEYASWHWIFLINIPVGIIGAIATLLLMPNYTMQTRRFDLSGFLLLAVGMAVLTLALDGSKGTGLSPLTIAGLVAVGVVALVLYLLHARNNNRALFSLKLFRTRTFSLGLAGSFAGRIGSGMLPFMTPVFLQIGLGFSPFHAGLMMIPMVLGSMGMKRIVVQVVNRFGYRRVLVATTLGLSLVTLLFMTTALLGWYYVLPFVLFLQGMVNSTRFSSMNTLTLKDLPDNLASSGNSLLSMIMQLSMSIGVTIAGLLLGLFGSQHVSVDSGTTQTVFMYTWLSMALIIALPAFIFARVPNDTHQNVAISRRKRSAQ												15.7 h
MNRTDELRTARIESLVTPAELALRYPVTPGVATHVTDSRRRIEKILNGEDKRLLVIIGPCSIHDLTAAMEYATRLQSLRNQYQSRLEIVMRTYFEKPRTVVGWKGLISDPDLNGSYRVNHGLELARKLLLQVNELGVPTATEFLDMVTGQFIADLISWGAIGARTTESQIHREMASALSCPVGFKNGTDGNTRIAVDAIRAARASHMFLSPDKNGQMTIYQTSGNPYGHIIMRGGKKPNYHADDIAAACDTLHEFDLPEHLVVDFSHGNCQKQHRRQLEVCEDICQQIRNGSTAIAGIMAESFLREGTQKIVGSQPLTYGQSITDPCLGWEDTERLVEKLASAVDTRF	5.25 ± 0.74 h		4.47 ± 0.041 h	4.88 ± 0.15 h	4.62 ± 0.51 h	3.089 ± 0.021 h	6.53 ± 1.7 h	10.3 ± 0.59 h	5.28 ± 0.75 h	7.35 ± 0.6 h	6.03 ± 0.34 h	11.8 ± 0.39 h
MKRRLIIAASLFVFNLSSGFAAENIPFSPQPPEIHAGSWVLMDYTTGQILTAGNEHQQRNPASLTKLMTGYVVDRAIDSHRITPDDIVTVGRDAWAKDNPVFVGSSLMFLKEGDRVSVRDLSRGLIVDSGNDACVALADYIAGGQRQFVEMMNNYAEKLHLKDTHFETVHGLDAPGQHSSAYDLAVLSRAIIHGEPEFYHMYSEKSLTWNGITQQNRNGLLWDKTMNVDGLKTGHTSGAGFNLIASAVDGQRRLIAVVMGADSAKGREEEARKLLRWGQQNFTTVQILHRGKKVGTERIWYGDKENIDLGTEQEFWMVLPKAEIPHIKAKYTLDGKELTAPISAHQRVGEIELYDRDKQVAHWPLVTLESVGEGSMFSRLSDYFHHKA									7.4 h			
MIRNVLLAFMICSGMTLLGGCSSVMSHTGGKEGTYPGTRASATMIGDDETNWGTKSLAILDMPFTAVMDTLLLPWDVFRKDSSVRSRVEKSEANAQATNAVIPPARMPDN [P0ADM4]	5.58 ± 0.24 h	6 ± 0.66 h	5.46 ± 0.49 h	5.9 ± 0.34 h	4.43 ± 0.12 h	2.6 ± 0.12 h	4.71 ± 0.37 h	8.87 ± 1.3 h	5.84 ± 0.094 h	11 ± 1.4 h	4.8 ± 0.24 h	11.1 ± 0.31 h
MEISFTRVALLAAALFFVGCDQKPQPAKTHATEVTVLEGKTMGTFWRASIPGIDAKRSAELKEKIQTQLDADDQLLSTYKKDSALMRFNDSQSLSPWPVSEAMADIVTTSLRIGAKTDGAMDITVGPLVNLWGFGPEQQPVQIPSQEQIDAMKAKTGLQHLTVINQSHQQYLQKDLPDLYVDLSTVGEGYAADHLARLMEQEGISRYLVSVGGALNSRGMNGEGLPWRVAIQKPTDKENAVQAVVDINGHGISTSGSYRNYYELDGKRLSHVIDPQTGRPIEHNLVSVTVIAPTALEADAWDTGLMVLGPEKAKEVVRREGLAVYMITKEGDSFKTWMSPQFKSFLVSEKN [P0AB85]	6.34 ± 0.12 h	6.53 ± 0.012 h	5.8 ± 0.66 h	6.9 ± 0.33 h	5.97 ± 0.26 h	2.9 ± 0.21 h	6.95 ± 0.84 h	11.9 ± 0.74 h	6.29 ± 0.19 h	12.3 ± 1.8 h	6.3 ± 1.1 h	13.4 ± 0.18 h
MKTYQGTHGVHILEYQSKINKLLCYLTNRYPRLIAVRVDLHYPKIVDNGDNICCFPNLEPGVISRMRESLRAKLEADRTRKVREDKRIYRCPLFIIWAKEYSESGKCHYHICLLFNKDAYYHLGDYDQDDNLRGMITGAWYSALRLERDDHPGLVHFPENCKYVLDTNSTDFQQNYQALLTRLDYLTKVESKVFGEGDRNFGCSQIEL								> 16 h				
MSRIIMLIPTGTSVGLTSVSLGVIRAMERKGVRLSVFKPIAQPRTGGDAPDQTTTIVRANSSTTTAAEPLKMSYVEGLLSSNQKDVLMEEIVANYHANTKDAEVVLVEGLVPTRKHQFAQSLNYEIAKTLNAEIVFVMSQGTDTPEQLKERIELTRNSFGGAKNTNITGVIVNKLNAPVDEQGRTRPDLSEIFDDSSKAKVNNVDPAKLQESSPLPVLGAVPWSFDLIATRAIDMARHLNATIINEGDINTRRVKSVTFCARSIPHMLEHFRAGSLLVTSADRPDVLVAACLAAMNGVEIGALLLTGGYEMDARISKLCERAFATGLPVFMVNTNTWQTSLSLQSFNLEVPVDDHERIEKVQEYVANYINADWIESLTATSERSRRLSPPAFRYQLTELARKAGKRIVLPEGDEPRTVKAAAICAERGIATCVLLGNPAEINRVAASQGVELGAGIEIVDPEVVRESYVGRLVELRKNKGMTETVAREQLEDNVVLGTLMLEQDEVDGLVSGAVHTTANTIRPPLQLIKTAPGSSLVSSVFFMLLPEQVYVYGDCAINPDPTAEQLAEIAIQSADSAAAFGIEPRVAMLSYSTGTSGAGSDVEKVREATRLAQEKRPDLMIDGPLQYDAAVMADVAKSKAPNSPVAGRATVFIFPDLNTGNTTYKAVQRSADLISIGPMLQGMRKPVNDLSRGALVDDIVYTIALTAIQSAQQQ [P0A9M8]	6.116 ± 0.01 h	5.89 ± 0.68 h	6.22 ± 0.38 h	6.08 ± 0.32 h	5.973 ± 0.042 h	3.14 ± 0.039 h	5.61 ± 0.24 h	11 ± 0.26 h	6.14 ± 0.12 h	11.99 ± 0.054 h	6.32 ± 0.58 h	11.8 ± 0.43 h
MAASTFFIPSVNVIGADSLTDAMNMMADYGFTRTLIVTDNMLTKLGMAGDVQKALEERNIFSVIYDGTQPNPTTENVAAGLKLLKENNCDSVISLGGGSPHDCAKGIALVAANGGDIRDYEGVDRSAKPQLPMIAINTTAGTASEMTRFCIITDEARHIKMAIVDKHVTPLLSVNDSSLMIGMPKSLTAATGMDALTHAIEAYVSIAATPITDACALKAVTMIAENLPLAVEDGSNAKAREAMAYAQFLAGMAFNNASLGYVHAMAHQLGGFYNLPHGVCNAVLLPHVQVFNSKVAAARLRDCAAAMGVNVTGKNDAEGAEACINAIRELAKKVDIPAGLRDLNVKEEDFAVLATNALKDACGFTNPIQATHEEIVAIYRAAM											4.98 h	9.25 ± 2.1 h
MSQNVYQFIDLQRVDPPKKPLKIRKIEFVEIYEPFSEGQAKAQADRCLSCGNPYCEWKCPVHNYIPNWLKLANEGRIFEAAELSHQTNTLPEVCGRVCPQDRLCEGSCTLNDEFGAVTIGNIERYINDKAFEMGWRPDMSGVKQTGKKVAIIGAGPAGLACADVLTRNGVKAVVFDRHPEIGGLLTFGIPAFKLEKEVMTRRREIFTGMGIEFKLNTEVGRDVQLDDLLSDYDAVFLGVGTYQSMRGGLENEDADGVYAALPFLIANTKQLMGFGETRDEPFVSMEGKRVVVLGGGDTAMDCVRTSVRQGAKHVTCAYRRDEENMPGSRREVKNAREEGVEFKFNVQPLGIEVNGNGKVSGVKMVRTEMGEPDAKGRRRAEIVAGSEHIVPADAVIMAFGFRPHNMEWLAKHSVELDSQGRIIAPEGSDNAFQTSNPKIFAGGDIVRGSDLVVTAIAEGRKAADGIMNWLEV	5.1 ± 0.5 h	4.59 ± 0.21 h	4.73 ± 0.05 h	5.25 ± 0.19 h	4.63 ± 0.37 h	2.7 ± 0.04 h	4.602 ± 0.032 h	7.68 ± 0.49 h	4.9 ± 0.24 h	7.719 ± 0.058 h	4.54 ± 0.39 h	8.48 ± 0.63 h
